For data set [1], the target named is human wild type trypsinogen-1 (PRSS1 wt).
Data set [2] deals with T1, supercharged variant of human trypsinogen-1 (PRSS1 sc).
T1 chain: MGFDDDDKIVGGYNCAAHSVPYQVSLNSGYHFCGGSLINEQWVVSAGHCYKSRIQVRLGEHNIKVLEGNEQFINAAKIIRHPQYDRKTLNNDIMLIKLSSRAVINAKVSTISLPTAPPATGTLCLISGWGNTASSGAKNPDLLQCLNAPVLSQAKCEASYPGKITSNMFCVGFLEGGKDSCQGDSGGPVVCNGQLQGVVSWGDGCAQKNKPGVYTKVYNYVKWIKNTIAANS

B1: human enteropeptidase light chain sc C112S (hEPI-sc-C112S) (protein)
chain: IVGGSDAKEGAWPWVVGLYYDDRLLCGASLVSSDWLVSAAHCVYGRNLEPSKWTAILGLHMKSNLTSPQTVPRLIDEIVINPHYNRRRKDNDIAMMHLEFKVNYTDYIQPISLPEENQVFPPGRNCSIAGWGTVVYQGTTADILQEADVPLLSNERCQQQMPEYNITENMICAGYEEGGIDSCQGDSGGPLMCQENNRWFLAGVTSFGYECALPNRPGVYARVSRFTEWIQSFLH
B1: the “activation of trypsinogen by enteropeptidase (trypsin activity on CBZ-GPR-pNA; fluorescence of FRET peptide 7)” value in data set [1] is “Both PRSS1 versions can be activated to similar levels”; in data set [2], “Both PRSS1 versions can be activated to similar levels, although PRSS1 sc shows a slightly slower activation profile”.

The values above are taken from patent US20160237419.
